The values that follow come from paper PMC8482512, “Aim32 is a dual-localized 2Fe-2S mitochondrial protein that functions in redox quality control” (The Journal of Biological Chemistry, 2021).

For experiment [1], the target named is Erv1 with a C-terminal histidine tag (Erv1-His) (S. cerevisiae) (UniProt P27882). As to the kind of experiment: pull-down; mitochondria of His-tagged strains solubilized in 1% digitonin, 500 μg lysate incubated with Ni2+-agarose beads, washed, eluted, immunoblot; untagged WT strain as control. (In general: In western blotting, separated proteins are transferred to a membrane and probed.)

The target in experiment [2] is Osm1 with a C-terminal histidine tag (Osm1-His) (S. cerevisiae) (UniProt P21375). The description is as above.
For experiment [3], the target named is T1, Aim32 with a C-terminal FLAG tag (Aim32-FLAG) (S. cerevisiae, UniProt Q04689 1-311).
T1 construct: Aim32, S. cerevisiae, PCR-amplified from genomic DNA of strain GA74-1A; also called pAIM32-FLAG; pAIM32; source: S. cerevisiae Δaim32 strain transformed with [pAIM32-FLAG]; (GPD promoter), mitochondrial lysate; not shown: 3XFLAG, C-terminal, kept
T1 sequence (looked up): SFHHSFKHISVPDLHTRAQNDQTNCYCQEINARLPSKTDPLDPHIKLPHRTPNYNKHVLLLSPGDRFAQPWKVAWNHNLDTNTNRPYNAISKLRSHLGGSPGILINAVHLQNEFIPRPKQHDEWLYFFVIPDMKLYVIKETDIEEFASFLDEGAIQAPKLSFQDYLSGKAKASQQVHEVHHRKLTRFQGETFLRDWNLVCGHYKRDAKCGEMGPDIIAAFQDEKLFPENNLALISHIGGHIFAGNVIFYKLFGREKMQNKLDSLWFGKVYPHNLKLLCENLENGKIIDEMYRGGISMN
As to the kind of experiment: co-IP; mitochondrial lysate of Δaim32 [pAIM32-FLAG], ANTI-FLAG M2 affinity gel (FLAG-resin), immunoblot with the indicated antibodies. The following applies: partners not purified.

Sequence of Erv1 with a C-terminal histidine tag (Erv1-His) (S. cerevisiae) (P27882 whole entry): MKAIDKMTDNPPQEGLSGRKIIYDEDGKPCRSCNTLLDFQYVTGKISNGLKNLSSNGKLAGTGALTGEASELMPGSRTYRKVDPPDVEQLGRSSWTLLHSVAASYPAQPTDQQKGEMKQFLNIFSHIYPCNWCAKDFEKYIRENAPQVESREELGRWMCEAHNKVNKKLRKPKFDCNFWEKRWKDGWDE
Sequence of Osm1 with a C-terminal histidine tag (Osm1-His) (S. cerevisiae) (P21375 33-501): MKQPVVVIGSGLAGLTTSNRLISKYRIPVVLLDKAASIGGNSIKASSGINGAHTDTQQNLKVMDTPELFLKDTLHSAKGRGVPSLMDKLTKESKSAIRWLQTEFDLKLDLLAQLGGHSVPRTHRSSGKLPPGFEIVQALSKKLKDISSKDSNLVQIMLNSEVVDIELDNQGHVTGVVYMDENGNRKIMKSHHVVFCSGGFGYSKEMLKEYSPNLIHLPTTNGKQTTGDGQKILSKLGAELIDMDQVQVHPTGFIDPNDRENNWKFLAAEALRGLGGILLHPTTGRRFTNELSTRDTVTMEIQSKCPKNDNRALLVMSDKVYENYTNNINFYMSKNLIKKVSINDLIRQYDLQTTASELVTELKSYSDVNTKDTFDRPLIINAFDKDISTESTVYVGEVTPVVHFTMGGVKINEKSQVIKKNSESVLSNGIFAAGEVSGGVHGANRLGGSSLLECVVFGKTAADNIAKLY

As for “Altered inheritance of mitochondria 32 (Aim32) (from UniProt Q04689 1-311) (natural protein)”, the values for the fraction copurified in experiment [1] and in experiment [2] were 10% and 5%, respectively.

B1: Tim22 (natural protein, UniProt Q12328 1-207, looked up)
chain: MVYTGFGLEQISPAQKKPYNELTPEEQGERGAEMIMNFMTSCPGKSVVSGVTGFALGGVLGLFMASMAYDTPLHTPTPANTAATATAGNIGVGGISRTVQQISDLPFRQQMKLQFTDMGKKSYSSAKNFGYIGMIYAGVECVIESLRAKNDIYNGVTAGFFTGAGLAYKAGPQAALMGGAGFAAFSAAIDLYMKSEDGRPPQNDFKE
notes: Tim22, component of the TIM22 translocon, S. cerevisiae; source: endogenous, S. cerevisiae mitochondrial lysate
As to B1, the fraction copurified in experiment [3] was approximately 10%.

B2: Tim17 (natural protein, UniProt P39515 1-158, looked up)
chain: MSADHSRDPCPIVILNDFGGAFAMGAIGGVVWHGIKGFRNSPLGERGSGAMSAIKARAPVLGGNFGVWGGLFSTFDCAVKAVRKREDPWNAIIAGFFTGGALAVRGGWRHTRNSSITCACLLGVIEGVGLMFQRYAAWQAKPMAPPLPEAPSSQPLQA
notes: Tim17, component of the TIM23 translocon, S. cerevisiae; source: endogenous, S. cerevisiae mitochondrial lysate
B2: in experiment [3], the fraction copurified is approximately 10%.

B3: Tim23 (natural protein, UniProt P32897 1-222, looked up)
chain: MSWLFGDKTPTDDANAAVGGQDTTKPKELSLKQSLGFEPNINNIISGPGGMHVDTARLHPLAGLDKGVEYLDLEEEQLSSLEGSQGLIPSRGWTDDLCYGTGAVYLLGLGIGGFSGMMQGLQNIPPNSPGKLQLNTVLNHITKRGPFLGNNAGILALSYNIINSTIDALRGKHDTAGSIGAGALTGALFKSSKGLKPMGYSSAMVAAACAVWCSVKKRLLEK
notes: Tim23, component of the TIM23 translocon, S. cerevisiae; source: endogenous, S. cerevisiae mitochondrial lysate
As to B3, the fraction copurified in experiment [3] is approximately 10%.

B4: Tim50 (natural protein, UniProt Q02776 44-476, looked up)
chain: QKETKDDKPKSILTDDMLFKAGVDVDEKGQGKNEETSGEGGEDKNEPSSKSEKSRRKRQTSTDIKREKYANWFYIFSLSALTGTAIYMARDWEPQESEELKKDIDNGYTLSLMYKRFKARFNSMFTYFQEPPFPDLLPPPPPPPYQRPLTLVITLEDFLVHSEWSQKHGWRTAKRPGADYFLGYLSQYYEIVLFSSNYMMYSDKIAEKLDPIHAFVSYNLFKEHCVYKDGVHIKDLSKLNRDLSKVIIIDTDPNSYKLQPENAIPMEPWNGEADDKLVRLIPFLEYLATQQTKDVRPILNSFEDKKNLAEEFDHRVKKLKDKFYGDHKSGGNWAMTALGLGNSLGGSTKFPLDLIHEEGQKNYLMFMKMIEEEKEKIRIQQEQMGGQTFTLKDYVEGNLPSPEEQMKIQLEKQKEVDALFEEEKKKKKIAESK
notes: Tim50, component of the TIM23 translocon, S. cerevisiae; source: endogenous, S. cerevisiae mitochondrial lysate
In experiment [3], B4 yielded a fraction copurified of approximately 10%.

B5: Sod2 (enzyme, UniProt P00447 27-233, looked up)
chain: KVTLPDLKWDFGALEPYISGQINELHYTKHHQTYVNGFNTAVDQFQELSDLLAKEPSPANARKMIAIQQNIKFHGGGFTNHCLFWENLAPESQGGGEPPTGALAKAIDEQFGSLDELIKLTNTKLAGVQGSGWAFIVKNLSNGGKLDVVQTYNQDTVTGPLVPLVAIDAWEHAYYLQYQNKKADYFKAIWNVVNWKEASRRFDAGKI
notes: Sod2, matrix antioxidant (superoxide dismutase), S. cerevisiae; source: endogenous, S. cerevisiae mitochondrial lysate
Consider B5, for which the fraction copurified in experiment [3] is approximately 10%.
